The chains are these.
T1: HLA DP molecule DPB1*0201 (human)
T1 chain 1: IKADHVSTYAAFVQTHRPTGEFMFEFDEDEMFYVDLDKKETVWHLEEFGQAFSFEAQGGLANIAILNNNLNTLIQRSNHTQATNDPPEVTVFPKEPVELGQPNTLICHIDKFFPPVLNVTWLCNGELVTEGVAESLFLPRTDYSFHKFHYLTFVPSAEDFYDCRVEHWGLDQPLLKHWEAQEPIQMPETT
T1 chain 2: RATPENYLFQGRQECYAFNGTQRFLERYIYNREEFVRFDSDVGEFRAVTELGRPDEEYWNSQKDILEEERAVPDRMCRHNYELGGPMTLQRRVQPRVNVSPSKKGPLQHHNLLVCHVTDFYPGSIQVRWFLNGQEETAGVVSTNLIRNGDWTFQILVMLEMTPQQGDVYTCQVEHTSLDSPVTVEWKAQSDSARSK

T2: HLA DP molecule DPB1*0401 (human)
T2 chain 1: T1 chain 1
T2 chain 2: T1 chain 2 with V36A, D55A, E56A, E69K

T3: HLA-DP DPB1*0401 (human)
T3 chain 1: T1 chain 1
T3 chain 2: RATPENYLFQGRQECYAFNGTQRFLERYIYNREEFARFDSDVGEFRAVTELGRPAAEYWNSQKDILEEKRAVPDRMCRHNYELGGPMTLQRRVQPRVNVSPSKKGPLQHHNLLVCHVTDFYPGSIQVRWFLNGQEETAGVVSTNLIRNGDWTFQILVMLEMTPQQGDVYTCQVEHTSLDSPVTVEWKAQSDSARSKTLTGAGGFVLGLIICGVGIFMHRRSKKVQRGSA

Changes are numbered by the printed parent chain.

Consider 18 molecules from patent publication US20150004189A1 (published 2015).

As usually defined, the IC50 is the concentration that inhibits the measured activity by half.

The target of one experiment is T1, HLA DP molecule DPB1*0201. As to the kind of experiment: competition vs radiolabeled peptide, purified HLA-DP.
On to AETCPIFYDVFFAVA [Fel d 1 2 peptide, position 21, AETCPIFYDVFFAVA (Peptide ID 3324.1056)], for which the IC50 was determined as 0.0081 µM.
On the same count and under the same terms, as for NALSVLDKIYTSPLC [Fel d 1 1 peptide, position 78, NALSVLDKIYTSPLC (Peptide ID 3324.1050)], the figure is 0.575 µM; as for IFYDVFFAVANGNEL [Fel d 1 2 peptide, position 26, IFYDVFFAVANGNEL (Peptide ID 3324.1052)], 0.089 µM; as for DEYVEQVAQYKALPV [Fel d 1 1 peptide, position 41, DEYVEQVAQYKALPV (Peptide ID 3324.1049)], 1.12 µM.
The same measure, in the same setting: as for GSCWAFSGVAATESA [Der f 1 peptide, position 131, GSCWAFSGVAATESA (Peptide ID 3324.0670)], the figure is 9.31 µM.

A further experiment addresses T2, HLA DP molecule DPB1*0401. The description is as above.
Consider AETCPIFYDVFFAVA [Fel d 1 2 peptide, position 21, AETCPIFYDVFFAVA (Peptide ID 3324.1056)], for which the IC50 was found to be 0.0056 µM.
Regarding NALSVLDKIYTSPLC [Fel d 1 1 peptide, position 78, NALSVLDKIYTSPLC (Peptide ID 3324.1050)], the IC50 was 0.349 µM.
Molecule IFYDVFFAVANGNEL [Fel d 1 2 peptide, position 26, IFYDVFFAVANGNEL (Peptide ID 3324.1052)] had an IC50 of 0.242 µM.
Same read-out and setting: the figure for DEYVEQVAQYKALPV [Fel d 1 1 peptide, position 41, DEYVEQVAQYKALPV (Peptide ID 3324.1049)] is 0.533 µM.
Still for that read-out and setting: the figure for GSCWAFSGVAATESA [Der f 1 peptide, position 131, GSCWAFSGVAATESA (Peptide ID 3324.0670)] is 14.4 µM; for NGNELLLDLSLTKVN [Fel d 1 2 peptide, position 36, NGNELLLDLSLTKVN (Peptide ID 3324.1055)] it is 0.59 µM.

The next experiment concerns the target HLA DQ molecule DQB1*0202 (human). The experiment is described as follows: inhibition of radiolabeled peptide binding to purified HLA DQ.
Consider FKAAVAAAAGAPPAD [Poa p 5 peptide, position 61 (Peptide ID 3324.1575)], for which the IC50 was found to be 25.7 µM.
On the same count and under the same terms, the figure for QKLMEDINVGFKAAV [Poa p 5 peptide, position 51 (Peptide ID 3324.1580)] is 8.07 µM; for EGTVDFIFGEARSLY [Sal k 1 1 peptide, position 191 (Peptide ID 3324.1590)] it is 3.12 µM.

Another experiment has as its target HLA DQ molecule DQB1*0502 (human). The experiment is described as above.
Consider FKAAVAAAAGAPPAD [Poa p 5 peptide, position 61 (Peptide ID 3324.1575)], for which the IC50 came to 6.78 µM.
Still for that read-out and setting: the figure for DINVGFKAAVAAAAG [Poa p 5 peptide, position 56 (Peptide ID 3324.1571)] is 5.41 µM.
For the molecule EGTVDFIFGEARSLY [Sal k 1 1 peptide, position 191 (Peptide ID 3324.1590)], the IC50 was determined as 6.85 µM.
ATPEAKFDSFVAAFT [Poa p 5 peptide, position 121 (Peptide ID 3324.1570)] displayed an IC50 of 8 µM.

The target of the next experiment is HLA DQ molecule DQB1*0503 (human). Described as above.
As for FKAAVAAAAGAPPAD [Poa p 5 peptide, position 61 (Peptide ID 3324.1575)], the IC50 was found to be 1.38 µM.
Regarding QKLMEDINVGFKAAV [Poa p 5 peptide, position 51 (Peptide ID 3324.1580)], the IC50 was found to be 5.21 µM.
For EGTVDFIFGEARSLY [Sal k 1 1 peptide, position 191 (Peptide ID 3324.1590)], the concentration for half-maximal inhibition (IC50) came out at 2.36 µM.
Still for that read-out and setting: as for ATPEAKFDSFVAAFT [Poa p 5 peptide, position 121 (Peptide ID 3324.1570)], the figure is 0.91 µM.

The next experiment deals with HLA DQ molecule DQB1*0602 (human). The description is as above.
In turn, FKAAVAAAAGAPPAD [Poa p 5 peptide, position 61 (Peptide ID 3324.1575)] displayed an IC50 of 0.793 µM.
Molecule QKLMEDINVGFKAAV [Poa p 5 peptide, position 51 (Peptide ID 3324.1580)] registered an IC50 of 1.29 µM.
Still for that read-out and setting: as for DINVGFKAAVAAAAG [Poa p 5 peptide, position 56 (Peptide ID 3324.1571)], the figure is 0.034 µM; as for FTSLEYIEAAKWLLP [Sal k 1 1 peptide, position 321 (Peptide ID 3324.1589)], 1.3 µM.

For a further experiment, the target named is T3, HLA-DP DPB1*0401. As to the kind of experiment: inhibition of radiolabeled peptide binding to purified HLA-DP.
For IKSDKPLKGPFNFRF [Lol p 2 peptide 56-70 IKSDKPLKGPFNFRF (Peptide ID 3324.1140)], the IC50 came out at 12.3 µM.
The molecule DGVWEIKSDKPLKGP [Lol p 2 peptide 51-65 DGVWEIKSDKPLKGP (Peptide ID 3324.1139)] returned an IC50 of 5.21 µM.

The next experiment addresses HLA DQ molecule DQB1*0202 (human). As to the kind of experiment: inhibition of radiolabeled peptide binding to purified HLA class II.
For QVAQYKALPVVLENA [Fel d 1 1 (46-60) peptide QVAQYKALPVVLENA, Peptide ID 3324.1051], the IC50 turned out to be 21.4 µM.
Still for that read-out and setting: as for AIVYYSMYGHIKKMA [Alt a 7 (6-20) peptide AIVYYSMYGHIKKMA, Peptide ID 3324.0085], the figure is 6.24 µM; as for NGNELLLDLSLTKVN [Fel d 1 2 (36-50) peptide NGNELLLDLSLTKVN, Peptide ID 3324.1055], 8.02 µM.
For the molecule AETCPIFYDVFFAVA [Fel d 1 2 (21-35) peptide AETCPIFYDVFFAVA, Peptide ID 3324.1056], the IC50 amounted to 2.1 µM.

For the next experiment, the target named is HLA DQ molecule DQB1*0502 (human). The description is as above.
In the case of QVAQYKALPVVLENA [Fel d 1 1 (46-60) peptide QVAQYKALPVVLENA, Peptide ID 3324.1051], the IC50 was found to be 0.552 µM.
For NGNELLLDLSLTKVN [Fel d 1 2 (36-50) peptide NGNELLLDLSLTKVN, Peptide ID 3324.1055], the IC50 came out at 2.87 µM.

The next experiment deals with HLA DQ molecule DQB1*0503 (human). Described as above.
QVAQYKALPVVLENA [Fel d 1 1 (46-60) peptide QVAQYKALPVVLENA, Peptide ID 3324.1051] gave an IC50 of 0.61 µM.
Same read-out and setting: as for NGNELLLDLSLTKVN [Fel d 1 2 (36-50) peptide NGNELLLDLSLTKVN, Peptide ID 3324.1055], the figure is 9.37 µM.

A further experiment deals with HLA DQ molecule DQB1*0602 (human). Described as above.
Turning to QVAQYKALPVVLENA [Fel d 1 1 (46-60) peptide QVAQYKALPVVLENA, Peptide ID 3324.1051], the IC50 was 1.6 µM.
Same read-out and setting: the figure for AIVYYSMYGHIKKMA [Alt a 7 (6-20) peptide AIVYYSMYGHIKKMA, Peptide ID 3324.0085] is 3.35 µM.
